{"source": "patent US20110046075A1", "key": {"[1]": {"target": "Recombinant C3d (human C3 residues 974-1265, C1010A, with N-terminal G-S-R-S-T) (human) (UniProt P01024)", "sequence (P01024 other isoform, or with tags, fused parts or gaps C1010A C1010A limits assumed, form in doubt)": "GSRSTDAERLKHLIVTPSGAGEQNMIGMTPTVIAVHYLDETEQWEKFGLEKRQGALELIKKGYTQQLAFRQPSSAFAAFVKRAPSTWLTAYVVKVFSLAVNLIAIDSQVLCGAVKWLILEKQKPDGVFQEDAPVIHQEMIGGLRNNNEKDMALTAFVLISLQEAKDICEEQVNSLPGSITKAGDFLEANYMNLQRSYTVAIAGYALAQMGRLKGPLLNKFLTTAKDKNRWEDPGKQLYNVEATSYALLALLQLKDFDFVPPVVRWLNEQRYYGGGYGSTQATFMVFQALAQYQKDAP", "assay": "ITC at 25 C, Efb titrated into recombinant C3d"}, "[2]": {"target": "Recombinant C3d (human C3 residues 974-1265, C1010A, with N-terminal G-S-R-S-T) (human) (UniProt P01024)", "assay": "ITC (Example 3, FIG. 17), Efb titrated into recombinant C3d"}, "[3]": {"target": "Recombinant C3d (human C3 residues 974-1265, C1010A, with N-terminal G-S-R-S-T) (human) (UniProt P01024)", "assay": "ITC at 25 C, Efb titrated into recombinant C3d, single-site model"}, "[4]": {"target": "Recombinant C3d (human C3 residues 974-1265, C1010A, with N-terminal G-S-R-S-T) (human) (UniProt P01024)", "assay": "isothermal titration calorimetry, Efb titrated into recombinant C3d"}, "[5]": {"target": "Recombinant C3d (human C3 residues 974-1265, C1010A, with N-terminal G-S-R-S-T) (human) (UniProt P01024)", "assay": "ITC, model of two non-equivalent sites"}, "[6]": {"target": "Recombinant C3d (human C3 residues 974-1265, C1010A, with N-terminal G-S-R-S-T) (human) (UniProt P01024)", "assay": "ITC, Ehp titrated into recombinant C3d, model of two non-equivalent sites, first site"}, "[7]": {"target": "Recombinant C3d (human C3 residues 974-1265, C1010A, with N-terminal G-S-R-S-T) (human) (UniProt P01024)", "assay": "isothermal titration calorimetry, Ehp titrated into recombinant C3d; first site"}, "[8]": {"target": "Recombinant C3d (human C3 residues 974-1265, C1010A, with N-terminal G-S-R-S-T) (human) (UniProt P01024)", "assay": "ITC, Ehp titrated into recombinant C3d, model of two non-equivalent sites, second site"}, "[9]": {"target": "Recombinant C3d (human C3 residues 974-1265, C1010A, with N-terminal G-S-R-S-T) (human) (UniProt P01024)", "assay": "isothermal titration calorimetry, Ehp titrated into recombinant C3d; second site"}, "[10]": {"target": "Recombinant C3d (human C3 residues 974-1265, C1010A, with N-terminal G-S-R-S-T) (human) (UniProt P01024)", "assay": "isothermal titration calorimetry, Ehp titrated into recombinant C3d; first site of a model with two non-equivalent sites"}, "[11]": {"target": "Recombinant C3d (human C3 residues 974-1265, C1010A, with N-terminal G-S-R-S-T) (human) (UniProt P01024)", "assay": "isothermal titration calorimetry, Ehp titrated into recombinant C3d; second site of a model with two non-equivalent sites"}, "[12]": {"target": "Recombinant C3d (human C3 residues 974-1265, C1010A, with N-terminal G-S-R-S-T) (human) (UniProt P01024)", "assay": "ITC at 25 C, Efb-C titrated into recombinant C3d"}, "[13]": {"target": "Recombinant C3d (human C3 residues 974-1265, C1010A, with N-terminal G-S-R-S-T) (human) (UniProt P01024)", "assay": "ITC (Example 3, FIG. 17), Efb-C titrated into recombinant C3d"}, "[14]": {"target": "Recombinant C3d (human C3 residues 974-1265, C1010A, with N-terminal G-S-R-S-T) (human) (UniProt P01024)", "assay": "ITC at 25 C, Efb-C titrated into recombinant C3d, single-site model"}, "[15]": {"target": "Recombinant C3d (human C3 residues 974-1265, C1010A, with N-terminal G-S-R-S-T) (human) (UniProt P01024)", "assay": "isothermal titration calorimetry, Efb-C titrated into recombinant C3d"}}, "data": [{"substance": "Extracellular fibrinogen-binding protein (Efb), recombinant full-length, S. aureus strain Mu50 (from UniProt P0C6P2 29-165)", "values": [{"measurement": "enthalpy of binding (ΔH)", "setting": "[1]", "result": -9, "unit": "kcal/mol"}, {"measurement": "Kd", "setting": "[2]", "result": 2, "unit": "nM"}, {"measurement": "Kd", "setting": "[3]", "result": 2, "unit": "nM"}, {"measurement": "Kd", "setting": "[4]", "result": 4, "unit": "nM"}, {"measurement": "N", "setting": "[4]", "result": 1}, {"measurement": "ΔH", "setting": "[4]", "result": -9.1, "unit": "kcal/mol"}]}, {"substance": "SAV1155/Ehp (Efb Homologous Protein), recombinant mature form, S. aureus strain Mu50", "values": [{"measurement": "change in ΔG between the first and second sites", "setting": "[5]", "result": 3, "unit": "kcal/mol"}, {"measurement": "unfavorable change in enthalpy release between the first and second sites", "setting": "[5]", "result": 27, "unit": "kcal/mol"}, {"measurement": "Kd", "setting": "[6]", "result": 0.2, "unit": "nM"}, {"measurement": "N", "setting": "[7]", "result": 0.5}, {"measurement": "ΔH", "setting": "[7]", "result": -21.1, "unit": "kcal/mol"}, {"measurement": "Kd", "setting": "[8]", "result": 33, "unit": "nM"}, {"measurement": "N", "setting": "[9]", "result": 0.5}, {"measurement": "ΔH", "setting": "[9]", "result": 5.7, "unit": "kcal/mol"}, {"measurement": "Kd", "setting": "[10]", "result": 0.2, "unit": "nM"}, {"measurement": "Kd", "setting": "[11]", "result": 33, "unit": "nM"}]}, {"substance": "Efb-C, C-terminal C3-binding domain of Efb from S. aureus strain Mu50 (from UniProt P0C6P2 94-165)", "values": [{"measurement": "enthalpy of binding (ΔH)", "setting": "[12]", "result": -8.5, "unit": "kcal/mol"}, {"measurement": "Kd", "setting": "[13]", "result": 2, "unit": "nM"}, {"measurement": "Kd", "setting": "[14]", "result": 2, "unit": "nM"}, {"measurement": "N", "setting": "[15]", "result": 1}]}]}
